Results published in article PMC6638984, “Increased association between Epstein-Barr virus EBNA2 from type 2 strains and the transcriptional repressor BS69 restricts EBNA2 activity” (PLoS Pathogens, 2019).

Key:
[1] = target: BS69 CC-MYND (Homo sapiens) (UniProt Q15326); details: cited from earlier work
[2] = target: BS69 coiled-coil MYND domain (BS69_(CC-MYND), amino acids 480-602) (human) (UniProt Q15326); test: ITC; EBNA2 polypeptide titrated into 0.1 mM BS69_(CC-MYND) in the cell, 19 x 2.0 μl injections, 25°C, 20 mM Tris-HCl, 100 mM NaCl, 1 mM TCEP, pH 7.5; one-site (one event) model; n calculated for monomeric proteins
Chain of BS69 coiled-coil MYND domain (BS69_(CC-MYND), amino acids 480-602) (human) (Q15326 480-602): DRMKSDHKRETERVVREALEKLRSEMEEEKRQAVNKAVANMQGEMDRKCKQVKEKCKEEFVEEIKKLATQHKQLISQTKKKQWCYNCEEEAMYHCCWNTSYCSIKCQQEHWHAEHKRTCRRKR

[3] = target: BS69 coiled-coil MYND domain (BS69_(CC-MYND), amino acids 480-602) (human) (UniProt Q15326); test: ITC; EBNA2 polypeptide (0.3 or 0.6 mM) titrated into 0.1 mM BS69_(CC-MYND) in the cell, 19 x 2.0 µl injections, 25°C, 20 mM Tris-HCl, 100 mM NaCl, 1 mM TCEP, pH 7.5; one-site (one event) model; n on monomer concentrations; mean of 3 experiments

Chain of type 1 EBNA2 polypeptide T1 EBNA2_(381-445) (domain or fragment) (P12978 381-445): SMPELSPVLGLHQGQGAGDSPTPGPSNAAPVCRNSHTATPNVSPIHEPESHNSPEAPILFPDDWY
Chain of BS69 CC-MYND (Homo sapiens) (Q15326 480-602): as the sequence (Q15326 480-602) above
Chain of type 1 EBNA2 polypeptide T1 EBNA2_(381-455) (domain or fragment) (P12978 381-455): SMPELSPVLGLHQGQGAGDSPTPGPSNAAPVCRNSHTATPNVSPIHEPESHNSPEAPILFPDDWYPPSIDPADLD

EBNA2 type 1 motif 2 peptide motif 2 (from UniProt P12978)
Kd [1]: 35 µM

type 1 EBNA2 polypeptide T1 EBNA2_(381-445) (domain or fragment)
Kd [2]: 0.95 µM | stoichiometry N [2]: 0.42

type 1 EBNA2 polypeptide T1 EBNA2_(381-455) (domain or fragment)
stoichiometry N [3]: 0.38
